Measurements from article PMC3140484.

Assays:
[1] = system: CopR (CgtR9) response regulator, unphosphorylated (Corynebacterium glutamicum ATCC 13032); experiment: EMSA; conditions: unphosphorylated; apparent Kd; 50 mM Tris-HCl pH 7.5, 50 mM KCl, 10 mM MgCl2, 0.5 mM EDTA, 10% glycerol, room temperature 30 min; 50 mM acetylphosphate preincubation (60 min) for P2; DNA …
[2] = system: CopR (CgtR9) response regulator, preincubated with acetylphosphate (Corynebacterium glutamicum ATCC 13032); experiment: EMSA; conditions: 50 mM Tris-HCl pH 7.5, 50 mM KCl, 10 mM MgCl2, 0.5 mM EDTA, 10% glycerol, room temperature 30 min; 50 mM acetylphosphate preincubation (60 min) for P2; DNA …

## copR promoter Kd probe, 90 bp
[1]
  Kd: 2300 nM
[2]
  Kd: 400 nM
